According to article doi:10.1101/2024.04.17.589974 (bioRxiv, 2024):
Residue numbers refer to the chain shown, from its start.

Columns and labels:
[1] = target: T1, Y685F-VE-cadherin (knock-in mutant, mouse) (mouse (endogenous in lung of C57BL/6 …, UniProt P55284 46-784, Y685F)); assay: co-IP
T1 sequence (looked up): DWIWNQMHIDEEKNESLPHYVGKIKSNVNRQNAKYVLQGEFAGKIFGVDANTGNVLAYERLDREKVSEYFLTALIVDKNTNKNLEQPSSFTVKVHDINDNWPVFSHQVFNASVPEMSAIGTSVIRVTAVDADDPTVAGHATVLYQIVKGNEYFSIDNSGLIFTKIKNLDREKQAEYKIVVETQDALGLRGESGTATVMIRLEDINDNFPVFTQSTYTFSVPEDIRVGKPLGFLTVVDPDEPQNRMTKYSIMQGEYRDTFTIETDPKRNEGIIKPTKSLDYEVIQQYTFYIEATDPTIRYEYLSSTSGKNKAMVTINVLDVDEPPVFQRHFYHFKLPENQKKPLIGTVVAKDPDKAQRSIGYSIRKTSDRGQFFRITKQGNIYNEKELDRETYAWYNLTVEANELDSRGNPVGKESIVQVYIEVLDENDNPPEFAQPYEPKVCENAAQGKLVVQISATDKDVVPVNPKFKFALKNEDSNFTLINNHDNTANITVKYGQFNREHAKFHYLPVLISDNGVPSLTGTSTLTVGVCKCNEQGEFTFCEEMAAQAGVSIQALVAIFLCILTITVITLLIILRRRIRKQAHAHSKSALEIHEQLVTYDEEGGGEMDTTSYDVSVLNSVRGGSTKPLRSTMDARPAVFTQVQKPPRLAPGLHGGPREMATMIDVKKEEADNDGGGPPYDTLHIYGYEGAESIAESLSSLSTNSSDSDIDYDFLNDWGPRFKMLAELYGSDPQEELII

[2] = target: T2, VE-cadherin (wild type, mouse) (mouse (endogenous in lung of C57BL/6 …, UniProt P55284 46-784)); assay: co-IP
T2 sequence (looked up): T1 sequence (looked up) with F640Y

β-catenin/VE-cadherin ratio in the VE-cadherin immunoprecipitate (densitometry) [1]: 0.798
β-catenin/VE-cadherin ratio in the VE-cadherin immunoprecipitate (densitometry) [2]: 1.14
B1: β-catenin (natural protein, UniProt Q02248 1-781, looked up)
chain: MATQADLMELDMAMEPDRKAAVSHWQQQSYLDSGIHSGATTTAPSLSGKGNPEEEDVDTSQVLYEWEQGFSQSFTQEQVADIDGQYAMTRAQRVRAAMFPETLDEGMQIPSTQFDAAHPTNVQRLAEPSQMLKHAVVNLINYQDDAELATRAIPELTKLLNDEDQVVVNKAAVMVHQLSKKEASRHAIMRSPQMVSAIVRTMQNTNDVETARCTAGTLHNLSHHREGLLAIFKSGGIPALVKMLGSPVDSVLFYAITTLHNLLLHQEGAKMAVRLAGGLQKMVALLNKTNVKFLAITTDCLQILAYGNQESKLIILASGGPQALVNIMRTYTYEKLLWTTSRVLKVLSVCSSNKPAIVEAGGMQALGLHLTDPSQRLVQNCLWTLRNLSDAATKQEGMEGLLGTLVQLLGSDDINVVTCAAGILSNLTCNNYKNKMMVCQVGGIEALVRTVLRAGDREDITEPAICALRHLTSRHQEAEMAQNAVRLHYGLPVVVKLLHPPSHWPLIKATVGLIRNLALCPANHAPLREQGAIPRLVQLLVRAHQDTQRRTSMGGTQQQFVEGVRMEEIVEGCTGALHILARDVHNRIVIRGLNTIPLFVQLLYSPIENIQRVAAGVLCELAQDKEAAEAIEAEGATAPLTELLHSRNEGVATYAAAVLFRMSEDKPQDYKKRLSVELTSSLFRTEPMAWNETADLGLDIGAQGEALGYRQDDPSYRSFHSGGYGQDALGMDPMMEHEMGGHHPGADYPVDGLPDLGHAQDLMDGLPPGDSNQLAWFDTDL
